For one substance, fold decrease in activity of the HCV-Luc replicon (luciferase) in Huh-7 cells, 48 h results are on record in patent US20060246421A1.

The test deals with wild-type NS3 protein of hepatitis C virus (hepatitis C virus) (UniProt Q9WMX2). Description: cell-based or functional assay.

In turn, “D290A NS3 (ATPase-deficient mutant NS3 protein) (from UniProt Q9WMX2 1027-1657)” came in with a fold decrease in activity of the HCV-Luc replicon (luciferase) in Huh-7 cells, 48 h of 9 fold.
